Patent publication US7888291B2, “Substrates and assays for β-secretase” (Elan Pharmaceuticals, Inc., priority 2000, dated 2011)
“Also recorded” adds a separate entry of the source. Marks after values point to notes of the source that are not given here. Values belong to the substance of their own block, whether it stands above or below them. Non-standard residues stand in square brackets, D forms with d. No end group written: not given here. Nle = CCCC[C@H](N)C(=O)O; SO3‑ = not defined here

Tests used:
Assay type in all cases: biochemical
[1] = molecular target: T1, Hu-Asp2 (Homo sapiens, UniProt P56817); assay: Hu-Asp2 peptide substrate cleavage assay (HPLC quantitation of cleavage products); parameters: key to Activity: Those substrates that were not cleaved by the Hu-Asp2 are indicated by a “−” sign; substrates that produced activity are indicated by “+” signs in which the greater the activity, the more + signs are provided; ++: substrates that produced activity are indicated by “+” signs in which the greater the activity, the more + signs are provided; ++++: substrates that produced activity are indicated by “+” signs in which the greater the activity, the more + signs are provided; conditions: for Activity: 200 μM test substrate, 210 nM Hu-Asp2 enzyme, pH 4.5, 37° C., 3 hours
T1 construct: made in house; host or cells: High Five insect cells
T1 sequence (P56817 46-501): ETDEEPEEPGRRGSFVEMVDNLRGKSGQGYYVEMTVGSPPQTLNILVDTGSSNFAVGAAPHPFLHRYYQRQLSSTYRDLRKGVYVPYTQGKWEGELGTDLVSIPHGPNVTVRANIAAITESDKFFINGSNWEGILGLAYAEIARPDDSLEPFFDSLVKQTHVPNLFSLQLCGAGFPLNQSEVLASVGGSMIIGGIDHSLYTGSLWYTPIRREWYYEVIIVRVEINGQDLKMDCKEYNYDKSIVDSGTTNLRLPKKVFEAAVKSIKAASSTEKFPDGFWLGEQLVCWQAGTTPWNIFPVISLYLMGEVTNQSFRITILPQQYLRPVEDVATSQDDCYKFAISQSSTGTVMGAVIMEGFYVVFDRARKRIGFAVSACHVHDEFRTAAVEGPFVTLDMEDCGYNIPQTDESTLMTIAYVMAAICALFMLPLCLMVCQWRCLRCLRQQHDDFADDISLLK
Protocol: The peptides listed in Table 2 were designed, synthesized, and tested for activity as substrates for Hu-Asp2. 200 μM of each test substrate was incubated with 210 nM Hu-Asp2 enzyme at pH 4.5 at 37° C. for 3 hours. Of course it should be understood that these are merely exemplary assay conditions, and those of skill in the art will be able to vary these conditions and yet still provide appropriate Hu-Asp2 activity. For example, it is envisioned that the assays may be conducted at a pH range of from between about 4.0 to about 7.0. The amount of enzyme added to a given reaction mixture may also be varied and those of skill in the art will be able to perform assays defining the optimal enzyme concentrations necessary for a given assay, as such 150 nm; 200 nm; 250 nm; 300 nm or more or less enzyme may be added. Substrate concentration in those also may be varied such that an assay may use 100, 150 μM, 200 μM, 250 μM, 300 μM, 350 μM or more or less of any given; substrate. It may be that one substrate produces an optimum activity at one concentration whereas another substrate is needed to be present at a different concentration to produce an optimum cleavage rate. However, such optimizations of enzyme assay conditions is well within the skill of those in the art and will not require undue experimentation.
In an exemplary assay to determine the cleavage of the substrates of the present invention, Asp2 was prepared from High Five™ insect cells. Generally, the assasy are run in solution at acidic pH (4.0 to 5.0), at 25-37° C. in the presence of nM or sub-nanomolar enzyme. After a suitable period of incubation the reaction is stopped at a desired time by addition of 4% trifluoracetic acid (TFA). Substrates and products are separated using reverse phase HPLC. The disappearance of the substrates and the appearance of the products are monitored by continuous measurement of the absorbance of the effluent at […]. Furthermore, if the peptide comprises a tryptophan residue, the monitoring may additionally or alternatively involve continuous monitoring of fluorescence of tryptophan fluorescence (excitation at 280 nm, emission at […]) of the effluent.
In a typical assay, 210 nM enzyme and 200 μM substrate were incubated in 0.2 M sodium acetate at pH 4.5 in 100 μl volume at 37° C. for 1 to 3 hours. The assay was stopped by the addition of 50 μl 4% TFA to lower the pH below the active range of the enzyme. Subsequently, 100 μl of this mixture was injected into a Hewlett Packard Model 1090 HPLC equipped with a Vydac column (4.6 mm i.d.×150 mm, 5 μm) pre-equilibrated with 95% A (0.15% TFA in water), 5% B (0.15% TFA in acetonitrile). The constituents were then eluted from the column with the following linear gradients: 0-15 min: 5-50% B; 15-17 min: 50-100% B; 17-20 min: 100-5% B; 20-22 min: 5% B). The cleavage products were then quantitated using an enhanced integrator. […]

[2] = molecular target: T1, Hu-Asp2; assay: as above; conditions: for activity / rate of hydrolysis by Asp2 over wild type peptide (SEQ ID NO:20): Tables 3 and 4
[3] = molecular target: Hu-Asp (Homo sapiens, UniProt P56817); assay: Hu-Asp cleavage assay variation for substrates of SEQ ID NO:190 and 191 (Vmax, Km, pH, ionic strength, DMSO); parameters: made in house; host or cells: High Five insect cells; conditions: 100 mM NaOAc/HOAc, pH 4.5 (stated for SEQ ID NO:190 and 191)
Chain of Hu-Asp (P56817 46-501): as above
Protocol: In the substrates SEISY-EVEFRWKK (SEQ ID NO:190) and GLTNIKTEEISEISY-EVEFRWKK (SEQ ID NO:191), the 10 N-terminal amino acids of peptide SEISY-EVEFRWKK (SEQ ID NO:190) are identical to those of peptide SEISY-EVEFR (SEQ ID NO:152). The difference between the two peptide is the presence of a tryptophan and two lysines in the peptide of SEQ ID NO:190. […] Hu-Asp activity was tested towards SEISY-EVEFRWKK (SEQ ID NO:190) and GLTNIKTEEISEISY-EVEFRWKK (SEQ ID NO:191). […] The activity difference between the two peptides was particularly dramatic in the pH range 4.0-4.6. Specifically, it was 6.3-4.8 times higher for the peptide of SEQ ID NO:191. […] Both peptides were inhibited by increasing concentrations of DMSO. […] As expected, the N-terminus elongation increases activity. […] The development of the substrates of SEQ ID NO:190 and SEQ ID NO:191 is of great value in Hu-Asp inhibition studies and in studies concerning recombinant Hu-Asp refolding from E. coli inclusion bodies.
In a variation of the above assay for substrates of SEQ ID NO:190 or its N-terminally extended version depicted in SEQ ID NO:191), the substrates are incubated with the enzyme to a final reaction solution volume of 200 μl (although reaction mixtures of 50-100 μl also were used) composed of 5-50 μM peptide substrate, 1-10 nM enzyme, 0.1. M sodium acetate buffer at pH 4 to 5. […]

[4] = Table 3, 200 nM enzyme, 200 μM substrate, 300 mM Na-acetate, 4% DMSO, pH 4.5, 37° C., 4 hr, APP-Sw = 100
[5] = Table 5, 2 nM enzyme, 50 μM substrate, 25 mM Sodium acetate, pH 4.4, 37° C., 2 hr
[6] = Table 5, 2 nM enzyme, 50 μM substrate, 25 mM Sodium acetate, pH 4.4, 37° C., 2 hr, SEQ ID NO:141 = 100
[7] = Table 4, 200 nM enzyme, 200 μM substrate, pH 4.5, 37° C., 1 hr, SEQ ID NO:19 = 100

Substance: KVEANY-AVEGERKK (KVEANYAVEGERKK)
Activity [1]: ++++

Substance: KTISL- ↓-DVEPS (KTISLDVEPS) [Peptide 6]
activity as percentage of the Swedish mutation peptide (SEQ ID NO:19) ([2]; Table 3): 69% | Relative rate of Cleavage [2, 4]: 69.0 | activity / rate of hydrolysis by Asp2 over wild type peptide (SEQ ID NO:20) [2]: about 35 fold

Substance: KVEANY-EVEGERKK (KVEANYEVEGERKK)
activity as substrate of Hu-Asp2 (in words) [1]: good substrate for Hu-Asp | Activity [1]: ++++

Substance: TEIDY-EVEFR (TEIDYEVEFR)
Cleavage Activity [2, 5]: 0.62 µmol/min/mg | Relative rate of Cleavage [2, 6]: 390

Substance: KTINnle-↓-EVDPS (KTIN[Nle]EVDPS) [Peptide 4]
activity as substrate of Hu-Asp2 (in words) [1]: very well tolerated | Relative rate of Cleavage [2, 4]: 93.6

Substance: KTINL-↓-EVEPS (KTINLEVEPS) [Peptide 2]
activity as substrate of Hu-Asp2 (in words) [1]: activity similar to that of the Swedish mutant | Relative rate of Cleavage [2, 4]: 92.0

Substance: TRPGSGLTNIKTEEISEVSY-EVEFR (TRPGSGLTNIKTEEISEVSYEVEFR)
rate of cleavage / activity over SEVSY-EVEFR (SEQ ID NO:141) [2]: 8.4 fold | Cleavage Activity [2, 5]: 1.35 µmol/min/mg | Relative rate of Cleavage [2, 6]: 840

Substance: KVEALY-AVEGERKK (KVEALYAVEGERKK)
Activity [1]: +

Substance: SEVKM-DAEFR (SEVKMDAEFR) [APP-Wildtype, reference compound]
Relative rate of Cleavage ([2]; Table 3, 200 nM enzyme, 200 μM substrate, 300 mM Na-acetate, 4% DMSO, pH 4.5, 37° C., 24 hr reaction): 2.1* | Relative rate of Cleavage ([2]; Table 4, 200 nM enzyme, 200 μM substrate, pH 4.5, 37° C., 24 hr reaction): 2.1*

Substance: KTEEISEVSY-EVEFR (KTEEISEVSYEVEFR)
rate of cleavage / activity over SEVSY-EVEFR (SEQ ID NO:141) [2]: 3.6 fold | Cleavage Activity [2, 5]: 0.58 µmol/min/mg | Relative rate of Cleavage [2, 6]: 360

Substance: KVEANY-EVEGERCKK (KVEANYEVEGERCKK)
activity as substrate of Hu-Asp2 (in words) [1]: good substrate for Hu-Asp2

Substance: KTISL- ↓-DVDPS (KTISLDVDPS) [Peptide 7]
activity as substrate of Hu-Asp2 (in words) [1]: activity dropped substantially | Relative rate of Cleavage [2, 4]: 20.5

Substance: KVEANY-LVEGERKK (KVEANYLVEGERKK)
Activity [1]: +

Substance: SEVNY-↓-EVEFR (SEVNYEVEFR)
activity as fraction of that of SEVSY-EVEFR (SEQ ID NO:141) ([2]; peptide activity assays): ⅕

Substance: KTINnle-↓-DVDPS (KTIN[Nle]DVDPS) [Peptide 5]
reduction of activity compared with peptide #3 (SEQ ID NO:134) ([2]; Table 3): about 10 fold | Relative rate of Cleavage [2, 4]: 12.2

Substance: SEIDY-EVEFR (SEIDYEVEFR)
Cleavage Activity [2, 5]: 0.69 µmol/min/mg | Relative rate of Cleavage [2, 6]: 430

Substance: SEISY-EVEFR (SEISYEVEFR)
rate of cleavage / activity over SEVSY-EVEFR (SEQ ID NO:141) [2]: 5 fold | Cleavage Activity [2, 5]: 0.80 µmol/min/mg | Relative rate of Cleavage [2, 6]: 500

Substance: SEVSY-↓-EAEFR (SEVSYEAEFR)
activity as substrate of Hu-Asp2 (in words) [1]: activity comparable to the Swedish mutation; also recorded: activity comparable to that of the Swedish mutant | Relative rate of Cleavage [2, 7]: 77.1

Substance: Biotin-KVEANY-EVEGERC(oregon green)KK
cleavage site [1]: between Tyr and Glu only | Vmax and Km compared with a previous biotinylated fluorescent substrate derived from the Swedish Mutant peptide [2]: at least twice better; also recorded: at least double | cleavage after 15 minutes ([2]; 200 mM sodium acetate, pH 4.5, 10 μM substrate, 50 nM enzyme, 37° C., 15 minutes): 20% | cleavage after 30 minutes ([2]; 200 mM sodium acetate, pH 4.5, 10 μM substrate, 50 nM enzyme, 37° C., 30 minutes): 37% | cleavage after 60 minutes ([2]; 200 mM sodium acetate, pH 4.5, 10 μM substrate, 50 nM enzyme, 37° C., 60 minutes): 57% | cleavage after 120 minutes ([2]; 200 mM sodium acetate, pH 4.5, 10 μM substrate, 50 nM enzyme, 37° C., 120 minutes): 82%

Second part, led by results:

Activity [1]: +
Substance: KVEANY-DVEGERKK (KVEANYDVEGERKK)

Cleavage Activity [2, 5]: 0.38 µmol/min/mg | Relative rate of Cleavage [2, 6]: 240
Substance: SEVDY-EVEFR (SEVDYEVEFR)

Relative rate of Cleavage [2, 7]: 18.3 | activity / rate of hydrolysis by Asp2 over wild type peptide (SEQ ID NO:20) [2]: about 9 fold
Substance: SEVSY-↓-DAEFR (SEVSYDAEFR)
activity compared with Swedish mutant peptide (SEQ ID NO:19) ([2]; Table 4): about five times less than that of the Swedish mutation

Activity [1]: ++
Substance: WRRVEALY-LVEGERK (WRRVEALYLVEGERK)

Cleavage Activity [2, 5]: 0.27 µmol/min/mg | Relative rate of Cleavage [2, 6]: 160
Substance: TEVSY-EVEFR (TEVSYEVEFR)

Relative rate of Cleavage [2, 4]: 92.6
Substance: KTINnle-↓-EVEPS (KTIN[Nle]EVEPS) [Peptide 3]
activity as substrate of Hu-Asp2 (in words) [1]: activity similar to that of the Swedish mutation

activity as percentage of the Swedish mutation peptide (SEQ ID NO:19) ([2]; Table 3): about 13% | Relative rate of Cleavage [2, 4]: 13.1 | activity / rate of hydrolysis by Asp2 over wild type peptide (SEQ ID NO:20) [2]: six times better than wild type peptide
Substance: KTITL-↓-EVEPS (KTITLEVEPS) [Ubiquitin (Pep 1)]

Relative rate of Cleavage [2, 4]: 100 | Relative rate of Cleavage [2, 7]: 100.0
Substance: SEVNL-DAEFR (SEVNLDAEFR) [APP-Sw, reference compound]

Cleavage Activity [2, 5]: 0.37 µmol/min/mg | Relative rate of Cleavage [2, 6]: 230
Substance: TEVDY-EVEFR (TEVDYEVEFR)

Km [3]: 43.1 µM
Substance: GLTNIKTEEISEISYEVEFRWKK [SEQ ID NO:191, GLTNIKTEEISEISY-EVEFRWKK]

activity as substrate of Hu-Asp2 (in words) [1]: found to be cleaved by the Hu-Asp2
Substance: VEALY-LVEGER (VEALYLVEGER)

Activity [1]: +
Substance: KVEANL-AVEGERKK (KVEANLAVEGERKK)

Activity [1]: −
Substance: KVEALY-LV(SO3-)GER (KVEALYLV[SO3‑]GER; reading uncertain; also: sulfonated residue, parent residue not given here, printed as KVEALY-LV(SO3-)GER)
